The DeepSol protein solubility set

Experiment: soluble on expression in E. coli; label from the status in PepcDB or PDB records

Soluble on expression in E. coli, soluble:
MSLRTPYEEVRDFFHFVDNYVAEIDLLAEELAQELEIEGGETYGILAAHLRSLYGIHITRTEAAGGLIRHFDPAGKTLALSSYMAAPTRCFQLALQIAQLHAGATVDRVLAGAGFRNAEAAEICRIGLHNYFAAALILPYGQFHRAAQELRHDLELLAVRFGASLEQVAHRLSTLQRPGMKGVPIFFAKIDRAGNITKRHSATRLQFARFGAACPLWNIHQAFESSDRIVRQLAETPDGVRYLSIATQIEKAGAGFNTERPRYAIALGCEISHAQNFVYADTLDLGNAASFKPIGISCRVCERVDCVQRAVPPLKRKLHFDHLSRGALPYQIAEGHHHHHH
SKLTRKMVLTRAKASELHSVRKLNCWGSRLTDISICQEMPSLEVITLSVNSISTLEPVSRCQRLSELYLRRNRIPSLAELFYLKGLPRLRVLWLAENPCCGTSPHRYRMTVLRTLPRLQKLDNQAVTEEELSRALSEGEEITAAPEREGTGHGGPKLCCTLSSLSSAAETGRDPLDSEEEATSGAQDERGLKPPSRGQFPSLSARDASSSHRGRNVLTAILLLLRELDAEGLEAVQQTVGSRLQALRGEEVQEHAE
GSFTFSPGQDIQLIPPLINLLMSIEPDVIYAGHDNTKPDTSSSLLTSLNQLGERQLLSVVKWSKSLPGFRNLHIDDQITLIQYSWMSLMVFGLGWRSYKHVSGQMLYFAPDLILNEQRMKESSFYSLCLTMWQIPQEFVKLQVSQEEFLCMKVLLLLNTIPLEGLRSQTQFEEMRSSYIRELIKAIGLRQKGVVSSSQRFYQLTKLLDNLHDLVKQLHLYCLNTFIQSRALSVEFPEMMSEVIAAQLPKILAGMVKPLLFHKK
SNAMSARKLFYLGPQGTFTHQAAVNAAQELARFEPQGFDLMPMDDVPQILDAAQHGDGWGIVAWENNVEGYVVPNLDALIDAKDLVGFARVGVNVEFDAYVAQGADPAEARIATAHPHGLAQCKRFIAEHRLSTQPATSNAAACRDLIPGEIAFGPAICGELYDITRIGTAIQDYQGAATDFLVLSPRAEVARLLAKPRAEANVEYESVLTLIPLVTGPGVLANLLDVFRDAGLNMTSFISRPIKGRTGTYSFIVTLDAAPWEERFRDALVEIAEHGDWAKTLAVYPRREHPNPPVTSWMLPQGGVRLDDSHLPDDWQNDETVRRELMW
MQRGIVWVVDDDSSIRWVLERALAGAGLTCTTFENGNEVLAALASKTPDVLLSDIRMPGMDGLALLKQIKQRHPMLPVIIMTAHSDLDAAVSAYQQGAFDYLPKPFDIDEAVALVERAISHYQE
AMANIAQRPKRGPHDAAIQNILTELQNHAAAWPFLQPVNKEEVPDYYDFIKEPMDLSTMEIKLESNKYQKMEDFIYDARLVFNNCRMYNGENTSYYKYANRLEKFFNNKVKEIPEYSHLID
MEGIDHLADERNKAEFDVEDMKIVWAGSRHAFEVSDRIARLVASDPVFEKSNRARLSRKELFKSTLRKCAHAFKRIIELRLNEEEAGRLRHFIDQPAYVDLHWGMFVPAIKGQGTEEQQKKWLSLANKMQIIGCYAQTELGHGSNVQGLETTATLDPKTDEFVIHTPTQTASKWWPGGLGKVSTHAVVYARLITNGKDYGIHGFIVQLRSLEDHSPLPNITVGDIGTKMGNGAYNSMDNGFLMFDHVRIPRDQMLMRLSKVTREGEYVPSDVPKQLVYGTMVYVRQTIVADASNALSRAVCIATRYSAVRRQFGAHNGGIETQVIDYKTQQNRLFPLLASAYAFRFVGEWLKWLYTDVTERLAASDFATLPEAHACTAGLKSLTTTATADGIEECRKLCGGHGYLWCSGLPELFAVYVPACTYEGDNVVLQLQVARFLMKTVAQLGSGKVPVGTTAYMGRAAHLLQCRSGVQKAEDWLNPDVVLEAFEARALRMAVTCAKNLSKFENQEQGFQELLADLVEAAIAHCQLIVVSKFIAKLEQDIGGKGVKKQLNNLCYIYALYLLHKHLGDFLSTNCITPKQASLANDQLRSLYTQVRPNAVALVDAFNYTDHYLNSVLGRYDGNVYPKLFEEALKDPLNDSVVPDGYQEYLRPVLQQQL
SNMQLDTLRRIVQEINSSVSLHDSLDIMVNQVADAMKVDVCSIYLLDERNQRYLLMASKGLNPESVGHVSLQLSEGLVGLVGQREEIVNLENASKHERFAYLPETGEEIYNSFLGVPVMYRRKVMGVLVVQNKQPQDFSEAAESFLVTLCAQLSGVIAHAHAVGNIDVFRKPSNGA
MPASQIKSAVTSPLLPQSPSLFEKYPRPHKKLKQLHWEKLDCTDNSIWGTGKAEKFADDLYEKGVLADLEKAFAAREIKSLASKRKEDLQKITFLSRDISQQFGINLHMYSSLSVADLVKKILNCDRDFLQTPSVVEFLSKSEIIEVSVNLARNYAPYSTDWEGVRNLEDAKPPEKDPNDLQRADQIYLQLMVNLESYWGSRMRALTVVTSYEREYNELLAKLRKVDKAVSALQESDNLRNVFNVILAVGNFMNDTSKQAQGFKLSTLQRLTFIKDTTNSMTFLNYVEKIVRLNYPSFNDFLSELEPVLDVVKVSIEQLVNDCKDFSQSIVNVERSVEIGNLSDSSKFHPLDKVLIKTLPVLPEARKKGDLLEDEVKLTIMEFESLMHTYGEDSGDKFAKISFFKKFADFINEYKKAQAQNLAAEEEERLYIKHKKIVEEQQK
MPTASPIYDVVVVGAGISGLIATQLLDRAGLNIKCFEACSRVGGRAVSVQQSDLFLDLGATWFWLNEPLVQQLVNNLGLGTFPQAIEGDALFETLVDAPSRLRGNPIDAASGRFQAGASSLALGLAAQLKPGVLELGDPVHSLSEEDGEIVVKSSKQIVRAKHVIIAVPPALAAELIGFTLDLPADVRKAAHPQHIAVMNWAKEKYTLPTQAASAGGFGHELFQQPLGHGRIHWASTEVATEFGGHLEGAVRAGIQAALQTGFNLKSLEHHHHHH

Soluble on expression in E. coli, not soluble:
GPGSMPPSQTVEYEEDFGHNLMIHREYISKRCRDRVSFELSALSYSNLELRRGQEHLAGIMNRERRGVSVGASGAPDDQVQMQTDVDANSREVLSARYLFNERRLQFCDRFQNFFQSKLENSAASDSNGHEKQHLFSLMEACAVIFGCETEAARETYYRMFLGLDSETLLEEDEALRNRIADAKLVQRVLENNKGRQEVTQSPKLQQQQDQGKPLHAVSSGTSLLNDCEEERFISSIPELSLFEDETEARANGFVEGEDDVKANNGDLTAGSFSSPASSVNLPEEFEEYAPLYKAYITHAVGKGPVASYDISTLGSTGLTAERRRWRTLMEKIVREDYHTMTEVEQMDAIVLNEQLHTVKFFDLKIGDAIRDILQLLQRETGVGSSVNRDTPVGISPNNPERRV
MGWPVISGDYIVGDPKSPVAVVTLASDYQSLNLKNYAICGTCFTENFGIEKVIVNVLSNPRISCLVVCGQESDHFAGQSLLALAENGVSAFGGSKRIIGSEGVIPYLDDIPATAISRFLREIEVIDLVGTTDPAVIQQAIDSCSGKERGEAPELSMPEINEHSWKKYEPEVKKNIMSKIKK
MGSDKIHHHHHHMIILVGGEKGGSGKSCLAQNIAVFLTNEVQASVIMVDCDPQRTTSDWIQARNNNPKLPAINCVQLYGKIRNDLLSLEQHYDYVVVDCGGQDNLALRATMSVASYVLMPLRPKRRDLKTVSHMDDIVSTCLMINPKMKASFVITQCPSLPNQASRITEAKDVCRTYDINVLDAVNYCRNIYDDSEESGLSVFELEPQGKAADEMRSIACELLDITDAKQLIEQRNTASNVTPMRGNYGTSRSQEKRFVM
MNNQNNNFVDFSEDDDMMDADFLGVVIPDDLMNASLEFQRTEPFSFIPAEEDLAPMEILPNNQGDVEMTAVDKNPDKVLFELRVETQIEPTLNYINAENEAVEWDIKSYYDFDNPQRPAQADEAATYQENGYGFVDFQPFAQQQQPAYNGNEPEFLIQRMQITDETYANAHFHQNEYAIEEKPSLFSPSSTPSYCCTSGPISPAYTPIGNNANACAPTRSRRTSTASNKSGGKIGKVAKLGEKSSGEKRTRMTKAEMSRLTEKEKLERKKEQNRANAKNCVKNRNNSKEELKQTLEMLREKVQEAKRQNEMQENGLLAAYETNIFAVQGNNFPYGSLELFYDQLQGSKAEAVEQVQYDNNGEVVQLEEAFNKTEQDYGQYTSVKKIAGLPQNTFASKKSRAKTAFEIADHQLNLKKEEVELREANAIKVVLNQITRELNRYMDGAKLAEQQAFDENFQQFEPS
KGLDKWGIYVPESAAQSVKDAVFEAGAGAIGDYSQCSFEWQGTGQFLPHHNAQPVVGHPGQLERTEELRVEFVAPARLRTTLIDAIRAAHPYEEPAFDVVSMQSTQDLETAEGLGRVGTLPEPMRFGDFVQQVADALPETSWGIRAAGDPEQMVHTVAVSSGSGDSFLDAVAALGVDVYVTSDLRHHPADESRRAQGPLLIDTAHWASEFPWTYQVQELLAQEFAQLDVEVATLRTDPWNISAHPQLR
MGSDKIHHHHHHMYEEWKIVKREAPILGNDQLIENIWKMKREDSPYDIISLHKVNLIGGGNDAVLILPGTWSSGEQLVTISWNGVHYTIPDYRKSIVLYLARNGFNVYTIDYRTHYVPPFLKDRQLSFTANWGWSTWISDIKEVVSFIKRDSGQERIYLAGESFGGIAALNYSSLYWKNDIKGLILLDGGPTKHGIRPKFYTPEVNSIEEMEAKGIYVIPSRGGPNNPIWSYALANPDMPSPDPKYKSISDFLMDSLYVTGSANPYDYPYSKKEDMFPILASFDPYWPYRLSLERDLKFDYEGILVPTIAFVSERFGIQIFDSKILPSNSEIILLKGYGHLDVYTGENSEKDVNSVVLKWLSQQR
MSLDDYGIPQVAEINEQISVVWKDYGISPAPEAQDFEWVRRVYLDIIGRVPSVAELEEFQRDRGKDRKKNLVEKLLNDSAFTEEYARNWTTIWTNVLIGRNGGLDNNSQVSREGMQKYLRDSFARNKPYDQLVREVITSEGANAPGMPNFNGAVNFYMDKLAEDGVQATAKTAQIFLGVQVQCTQCHNHPFNSWKQDKFWELNAFFRQTRAQRDRGMEANEGHHHHHH
MGSDKIHHHHHHMKNFVVTTSHKPDREQVMKAKELAEKLGTIYVSRRRLKEFKVDFYYVVEKNRISIKWPGGEFFFHPSSAILRMRNIRSGQKDYLIESLQPEGNEIVLDTTFGLGSEAILMAAFLPEGKVIGLEGSIHIYTIVKYGMENFETDIRWLKDALKRIELYHANFKEYIRSQPDNSFDVVYCDPMFENPVYESSAMNPLRPFAVYDTVNEEDIEEMLRIAKKKVILKSHVKDSLFKRIRVDELKGSRKSGVLYGVIYKR
MGSDKIHHHHHHMSVLCLDLGGTKLMLAQVEGKTLLDTWRYPVPADGNFEQLFDFLVTCIHSHLTPETYGISIGIPGMVDMQSGTLLEVLNIPALTATQLAQQLKNTFEMDVVVNNDANLFALGEAVLNSNQDMLGITLGTGVGAGVIFNGQLYSGKHCAAGEIGSLSYRDGIIEHYCSGQYFTTHHHMSGEHLYQKACEGDSQALQAFAHFGEHLAHMIAQTLLVYDPKDIVLGGSVSQSFPFFIEALKQKLQSLVYGPQLADLTISASQHHNAALIGAAQWFLQQQKSSDFN
KANELKPIPFSQRTTPSILDLRKQQATVTQNKIRTDITRFCYGQEAHLDRALAYLGLSPSDEKRPIVTGLRETELNGAYSLILEFDSPLIPIDIWQQKHAKMTKYFAPNVEVKITQPAENRIELELIKTQ
